According to the supplement of paper PMC10724198:

Columns and labels:
Saccharomyces cerevisiae [1] = assay: protein stability index of tFT-peptide fusion in deletion strain of DAS1 (PSI (0-1 scale)); higher = more stable (slower turnover)
Procedure: (§1)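 MPS profiling in S. cerevisiae of two library types built from selected 12-aa C-degron peptides (IN1, IN2, LN1, LN3, VN2, R1-R5, W1-W3, Atg1 and Rpa12 C-termini): saturation mutagenesis libraries and C-terminal +1 capping libraries (13 aa). Each peptide is fused to the C-terminus of a sfGFP-mCherry timer, after a GGGS linker. Cells are FACS-sorted into 8 mCherry/sfGFP bins and sequenced. PSI runs from 0 (unstable) to 1 (stable), measured once in wild type and in the das1Δ or doa10Δ background.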

Saccharomyces cerevisiae [2] = assay: protein stability index of tFT-peptide fusion in wild type (PSI (0-1 scale)); higher = more stable (slower turnover); conditions: genetic background: wild type
Procedure: as §1
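Throughout, for protein stability index of tFT-peptide fusion in deletion strain of DAS1: PSI is a weighted mean of each variant's read distribution over the sorted stability bins, computed only for variants having over 10 reads in total.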
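Throughout, for protein stability index of tFT-peptide fusion in wild type: PSI derived as read-weighted mean over the 8 sorting bins, only variants exceeding 10 total reads kept, mCherry placed adjacent to the peptide and sfGFP distal.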

Sequence	protein stability index (Saccharomyces cerevisiae [1])	protein stability index (Saccharomyces cerevisiae [2])
FLMRWTFRYWVN	0.342	0.0449
FPMRWTFRYWVN	0.574	0.062
FSHRWTFRYWVN	0.568	0.0512
FSLAASFWRVVG	0.671	0.121
FSMNWTFRYWVN	0.496	0.0654
FSMQWTFRYWVN	0.466	0.0371
FSMRMTFRYWVN	0.464	0.0474
FSMRWTFGYWVN	0.404	0.0637
FSMRWTFMYWVN	0.456	0.0968
FSMRWTFQYWVN	0.502	0.0522
FSMRWTFRLWVN	0.291	0.028
FSMRWTFRNWVN	0.589	0.0567
FSMRWTFRYAVN	0.585	0.158
FSMRWTFRYWVNA	0.496	0.163
FSMRWTFVYWVN	0.327	0.0513
FSMRWTKRYWVN	0.545	0.0745
FSMRWVFRYWVN	0.495	0.077
FSMVWTFRYWVN	0.314	0.0843
FSQRWTFRYWVN	0.563	0.0417
GKILRQKMNHQN	0.677	0.263
HRWRVGLWRGAS	0.676	0.457
IRWRVGLWRGAS	0.707	0.163

Sequence	protein stability index (Saccharomyces cerevisiae [1])	protein stability index (Saccharomyces cerevisiae [2])
KGHKKGQKQKIN	0.57	0.108
KKAKKGQKQKIN	0.624	0.106
KKHDKGQKQKIN	0.587	0.0762
KKHKGGQKQKIN	0.584	0.0809
KKHKKGQKDKIN	0.63	0.652
KKHKKGQKQKGN	0.616	0.61
KKHKKGQKQKINI	0.661	0.649
KKHKKGQKQKINV	0.657	0.647
KKHKKGQKQKINY	0.663	0.643
KKHKKGQKQKIR	0.595	0.676
KKHKKGQKQKVN	0.599	0.208
KKHKKGQKQKWN	0.587	0.305
KKHKKGQKQQIN	0.554	0.404
KKHKKGQKRKIN	0.655	0.275
KKHKKGQQQKIN	0.571	0.162
KKHKKGSKQKIN	0.673	0.0787
KKHKKHQKQKIN	0.521	0.0431
KKHKKIQKQKIN	0.631	0.0571
KKHKKMQKQKIN	0.571	0.027
KKHKKWQKQKIN	0.585	0.0352
KKHKQGQKQKIN	0.73	0.0536
KKHKRGQKQKIN	0.617	0.0579
